Source: PMC2564731 (Molecular Systems Biology, 2008)

What was measured:
Experiment in all cases: pull-down
[1] = target: T1, ENHANCER OF GLABRA3 (EGL3), recombinant GST or His fusion protein (Arabidopsis, UniProt Q9CAD0 1-596)
T1 sequence: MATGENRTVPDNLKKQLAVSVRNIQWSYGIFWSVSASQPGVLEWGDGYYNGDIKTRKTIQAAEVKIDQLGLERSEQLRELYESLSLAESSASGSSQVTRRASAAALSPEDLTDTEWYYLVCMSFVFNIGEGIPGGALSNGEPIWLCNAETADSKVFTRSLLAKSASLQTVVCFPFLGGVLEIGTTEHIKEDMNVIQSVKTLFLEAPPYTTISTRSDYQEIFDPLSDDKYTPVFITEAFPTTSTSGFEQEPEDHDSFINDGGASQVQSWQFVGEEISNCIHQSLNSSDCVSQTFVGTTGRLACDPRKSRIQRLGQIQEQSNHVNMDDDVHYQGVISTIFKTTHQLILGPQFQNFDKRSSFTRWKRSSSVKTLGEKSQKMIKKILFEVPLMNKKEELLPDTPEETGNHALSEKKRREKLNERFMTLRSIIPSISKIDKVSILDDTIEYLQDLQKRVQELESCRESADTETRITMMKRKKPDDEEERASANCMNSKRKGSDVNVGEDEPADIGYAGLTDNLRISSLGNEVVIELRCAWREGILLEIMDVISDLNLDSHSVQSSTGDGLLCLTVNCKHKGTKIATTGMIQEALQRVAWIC

[2] = target: T2, GLABRA3 (GL3), recombinant GST or His fusion protein (Arabidopsis, UniProt Q9FN69 1-637)
T2 sequence: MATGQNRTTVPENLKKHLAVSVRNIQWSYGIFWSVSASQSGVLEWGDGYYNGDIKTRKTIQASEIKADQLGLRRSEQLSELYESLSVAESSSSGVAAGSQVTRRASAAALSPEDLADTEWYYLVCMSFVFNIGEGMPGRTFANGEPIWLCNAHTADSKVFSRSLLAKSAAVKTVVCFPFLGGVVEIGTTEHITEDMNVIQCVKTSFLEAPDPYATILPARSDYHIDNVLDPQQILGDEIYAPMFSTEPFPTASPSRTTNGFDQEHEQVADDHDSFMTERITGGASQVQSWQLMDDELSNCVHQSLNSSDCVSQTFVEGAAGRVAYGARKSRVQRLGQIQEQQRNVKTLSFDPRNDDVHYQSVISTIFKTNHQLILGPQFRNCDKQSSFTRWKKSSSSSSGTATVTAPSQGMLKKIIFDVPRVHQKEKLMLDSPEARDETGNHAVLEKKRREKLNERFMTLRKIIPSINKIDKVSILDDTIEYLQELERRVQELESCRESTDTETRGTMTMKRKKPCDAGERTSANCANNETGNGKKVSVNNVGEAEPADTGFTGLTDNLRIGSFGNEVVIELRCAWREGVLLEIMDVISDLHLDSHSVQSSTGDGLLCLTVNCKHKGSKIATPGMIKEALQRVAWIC

[3] = target: T3, GLABRA1 (GL1), recombinant GST or His fusion protein (Arabidopsis, UniProt P27900 1-228)
T3 sequence: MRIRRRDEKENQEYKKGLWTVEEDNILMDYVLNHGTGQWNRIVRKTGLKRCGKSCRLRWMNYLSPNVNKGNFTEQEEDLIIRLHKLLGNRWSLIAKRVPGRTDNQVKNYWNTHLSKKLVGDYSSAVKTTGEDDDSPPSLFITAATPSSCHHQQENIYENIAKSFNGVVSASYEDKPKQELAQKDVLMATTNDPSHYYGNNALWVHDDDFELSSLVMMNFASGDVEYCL

Measured: binding result

B1: TRIPTYCHON (TRY), recombinant GST or His fusion protein (natural protein)
chain: MDNTDRRRRRKQHKIALHDSEEVSSIEWEFINMTEQEEDLIFRMYRLVGDRWDLIAGRVPGRQPEEIERYWIMRNSEGFADKRRQLHSSSHKHTKPHRPRFSIYPS
binds: all assays above
